Assay results as given in publication PMC3158102.

Target: IQ motif containing GTPase activating protein 1 (IQGAP1), endogenous in differentiated HL-60 cells (human (endogenous in HL-60)) (UniProt P46940)
Experiment: co-IP; rabbit anti-IQGAP1 antibody and Protein A/G agarose; lysates of differentiated HL-60 cells expressing CXCR2, vehicle or 100 ng/ml CXCL8 for 1 or 5 min; western blot for Cdc42, densitometry

Chain of IQ motif containing GTPase activating protein 1 (IQGAP1), endogenous in differentiated HL-60 cells (human (endogenous in HL-60)) (P46940 whole entry): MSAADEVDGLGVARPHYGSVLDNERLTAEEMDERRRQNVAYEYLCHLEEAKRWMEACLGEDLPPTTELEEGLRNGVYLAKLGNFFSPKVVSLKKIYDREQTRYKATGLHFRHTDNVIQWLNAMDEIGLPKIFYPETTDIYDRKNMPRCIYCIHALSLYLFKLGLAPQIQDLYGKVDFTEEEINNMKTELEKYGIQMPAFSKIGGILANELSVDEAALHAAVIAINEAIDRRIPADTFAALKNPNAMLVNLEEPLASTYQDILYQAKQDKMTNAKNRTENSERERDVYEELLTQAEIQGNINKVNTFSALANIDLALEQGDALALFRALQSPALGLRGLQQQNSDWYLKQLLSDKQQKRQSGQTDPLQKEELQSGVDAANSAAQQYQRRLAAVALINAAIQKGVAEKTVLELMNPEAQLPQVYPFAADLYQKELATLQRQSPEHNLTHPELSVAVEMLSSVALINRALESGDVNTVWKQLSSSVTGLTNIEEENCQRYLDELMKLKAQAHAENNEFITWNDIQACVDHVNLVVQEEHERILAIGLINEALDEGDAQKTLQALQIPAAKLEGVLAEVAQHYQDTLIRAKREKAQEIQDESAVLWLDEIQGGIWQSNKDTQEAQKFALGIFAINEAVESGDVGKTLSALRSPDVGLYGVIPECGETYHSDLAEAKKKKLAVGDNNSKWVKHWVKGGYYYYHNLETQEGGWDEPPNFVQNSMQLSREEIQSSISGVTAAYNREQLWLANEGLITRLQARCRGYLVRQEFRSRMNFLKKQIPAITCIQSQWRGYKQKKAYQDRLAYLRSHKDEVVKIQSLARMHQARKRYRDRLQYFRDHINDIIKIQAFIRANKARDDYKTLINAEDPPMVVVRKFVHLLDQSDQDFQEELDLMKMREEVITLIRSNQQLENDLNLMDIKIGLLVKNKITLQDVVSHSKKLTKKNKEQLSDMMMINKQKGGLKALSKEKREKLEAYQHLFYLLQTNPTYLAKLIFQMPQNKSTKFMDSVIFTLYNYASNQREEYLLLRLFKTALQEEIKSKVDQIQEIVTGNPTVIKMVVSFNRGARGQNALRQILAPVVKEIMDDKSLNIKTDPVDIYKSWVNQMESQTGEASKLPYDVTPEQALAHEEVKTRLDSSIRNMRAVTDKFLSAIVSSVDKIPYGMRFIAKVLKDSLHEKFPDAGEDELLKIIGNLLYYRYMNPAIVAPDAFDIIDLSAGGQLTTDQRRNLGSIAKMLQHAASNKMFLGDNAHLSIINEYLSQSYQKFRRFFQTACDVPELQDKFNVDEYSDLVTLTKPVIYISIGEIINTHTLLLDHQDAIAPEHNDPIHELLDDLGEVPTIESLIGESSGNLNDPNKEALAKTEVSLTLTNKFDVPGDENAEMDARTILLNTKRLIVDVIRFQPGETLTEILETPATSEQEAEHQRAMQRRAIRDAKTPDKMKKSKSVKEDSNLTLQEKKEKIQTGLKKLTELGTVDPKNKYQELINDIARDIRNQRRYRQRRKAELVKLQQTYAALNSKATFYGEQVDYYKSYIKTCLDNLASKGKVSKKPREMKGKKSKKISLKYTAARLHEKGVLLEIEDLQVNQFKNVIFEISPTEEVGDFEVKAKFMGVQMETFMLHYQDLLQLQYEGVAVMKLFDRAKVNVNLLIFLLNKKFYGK
Chain of Cdc42, endogenous in differentiated HL-60 cells expressing CXCR2, P60953 1-191 (natural protein; other documents disagree on this pair) (P60953 whole entry): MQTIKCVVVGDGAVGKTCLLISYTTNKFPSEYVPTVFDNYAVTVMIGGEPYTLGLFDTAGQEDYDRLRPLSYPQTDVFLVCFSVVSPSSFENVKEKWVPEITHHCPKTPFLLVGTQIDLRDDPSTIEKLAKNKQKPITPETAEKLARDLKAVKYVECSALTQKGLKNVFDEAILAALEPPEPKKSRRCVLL

Substance: Cdc42, endogenous in differentiated HL-60 cells expressing CXCR2, P60953 1-191 (natural protein; other documents disagree on this pair)
- fold increase in co-immunoprecipitated Cdc42 after 1 min of CXCL8 over untreated cells: 1.36 fold
